Measured values taken from patent US20220098328A1, “ANTIBODIES TO M(H)DM2/4 AND THEIR USE IN DIAGNOSING AND TREATING CANCER” (NomoCan Pharmaceuticals LLC, priority 2017, published 2022).
“Also recorded” adds a separate entry of the source.

B1: NMC-204: mouse monoclonal antibody of the IgG3 isotype that binds to NMC-P2 (SEQ ID NO:2); VH SEQ ID NO:38, VL SEQ ID NO:39 (antibody, V domains shown)
VH: EVQLQESGSVLVRPGASVKLSCKASGDTLSGSWMHWAMQRPGQGLEWIGEIHLNRGTTNYNEKFKGKATVTVDTSSSTAYVDLSSLTSEDSAVYYCARSPGFAYWGQGTLVTVSA
VL: GIVMTQAAPSVPVTPGESVSISCRSSKSLLHSNGNSYLYWFLQRPGQSPQLLIYRMSNLASGVPDRFSGSGSGTAFTLRITRVEAEDVGVYYCMQHLEYPFTFGSGTKLEIK
modifications: mAb NMC-204 Heavy Chain Variable Region; mAb NMC-204 Light Chain Variable Region
B2: NMC-103: mouse monoclonal antibody of the IgG1 isotype that binds to NMC-P1 (SEQ ID NO:1); VH SEQ ID NO:36, VL SEQ ID NO:37 (antibody, V domains shown)
VH: EVQLQESGGGLVQPGGSLRLSCTTSGFTFTHYYMSWVRQPPGKALEWLGFIRNKAKGYTAEYSASVKGRFTISRDNSQSILYLQMNTLRPEDSATYYCARDIGDNWGQGTLVTVSS
VL: DIVMTQAAFSNPVTLGTSASISCRSSKNLLHSNGITYLYWYLQRPGQSPQLLISRVSNLASGVPNRFSGSESGTDFTLRISRVEAEDVGVYFCAQLLELPYTFGGGTKLEIK
modifications: mAb NMC-103 Heavy Chain Variable Region; mAb NMC-103 Light Chain Variable Region

How the values were obtained:
[1] = target: NMC-P1 peptide (SEQ ID NO:1), amino acids 1-15 of HDM2 (Homo sapiens, UniProt Q00987); assay: Peptide-ELISA; type: binding; details: for binding to NMC-P1 peptide: peptide-ELISA, 5 μg/ml peptide on plate, OD 450 nm
Experimental: (§1) Peptide-ELISA Methodology: 5 μg/ml of NMC-P1, NMC-P2 or NMC-P3 peptide antigen was dried onto a 96-well ELISA plate overnight. Plates were then blocked with 5% BSA in 1× phosphate-buffered saline (PBS) (100 μl/well) for 2 hours at room temperature. Microplate wells were then washed 5 times with 300 μl of ice cold 1×PBS. Appropriate dilutions of monoclonal antibodies NMC-103, NMC-204 or NMC-303 in 1% bovine serum albumin (BSA) in PBS solution were then incubated with their corresponding peptides (NMC-P1, NMC-P2 or NMC-P3, respectively) at room temperature. After 2 hours, wells were washed 5 times with 300 μl ice-cold PBS/well and 100 μl secondary antibody (HRP-labeled Goat anti-Mouse F(ab′)2 H&L cross-adsorbed secondary antibody (HRP-GaM F(ab′)2), ThermoFisher, Cat. No. A24524) diluted 1:2500 to 1:5000 in PBS-1% BSA solution were added and the incubation continued at room temperature. After 1 hour, the wells were washed again 5 times with 200 μl of ice-cold PBS and 50 μL of the TMB Substrate Solution (1-Step™ Ultra TMB-ELISA, ThermoFisher, Cat. No. 34028) were added to each well and color was allowed to develop for 30 minutes at room temperature. The reaction was stopped by addition of 50 μL of stop solution (ThermoFisher, Cat. No. SS04) to each well and absorbance of each well was read immediately for optical density (OD) at 450 nm.
Competition assays: As for peptide antigen binding competition experiments, […] of mAb NMC-103 was pre-incubated with 10 μl/ml of NMC-P1, NMC-P2 or NMC-P3 for 1 hour at room temperature. MAb NMC-103 was then incubated with ELISA plates coated with NMC-P1 as described above.

[2] = target: NMC-P2 peptide (SEQ ID NO:2), amino acids 15-25 of HDM2 (Homo sapiens, UniProt Q00987); assay: Peptide-ELISA; type: binding; details: 5 μg/ml peptide on plate, OD 450 nm
Experimental: as §1

[3] = system: mouse colon cancer MC-38 cells; assay: MC-38 syngeneic mouse model of colon cancer; type: in vivo; details: for reduction in tumor volume over the same time period: 0.4 mg/kg i.p. 3 times a week for 3 weeks
Experimental: Methodology used (Syngeneic Mouse Models of lung, colon and pancreatic cancer): To investigate the anti-tumor effects of HDM2-specific antibodies on lung, colon and pancreatic tumors in vivo, three well-known syngeneic mouse models of lung, colon and pancreatic cancer were used (Sharma et al., 1999, J. Immunol. 163 (9):5020-5028; McIntyre, 2015, Bioassays 37(8):909-920; Li, et al., 2015, Sci. Rep. 5:7856). Subcutaneous tumors were prepared by implanting either mouse Lewis Lung cancer LL/2 cells (2.5×10^5 cells/mouse), mouse colon cancer MC-38 cells (5×10^5 cells/mouse) or mouse pancreatic cancer Panc-2 cells (2×10^6 cells/mouse) in the right flanks of 8-week-old female C57BL/6 mice (n=6-7). The mice were returned to their respective cages after tumor implantation. From day 7 after tumor implantation, the tumor volumes were measured 2 times/week with a digital caliper. In the case of MC-38 and Panc-2 study, treatment started when the tumors reached an average of 70-80 mm^3. In the case of LL/2 study, tumor cell inoculation and treatment were initiated simultaneously. Mice were micro-chipped and registered following tumor implantation. Tumor volume measurements and body weights were recorded and mice were randomized into groups that received: A) mAb NMC-103 at 0.4 mg/kg (3 times a week for 3 weeks), 2 mg/kg (2 times a week for 3 weeks), or 4 mg/kg (2 times a week for 3 weeks); B) NMC-204 at 0.4 mg/kg (3 times a week for 3 weeks); C) isotype control mouse IgG1 (Abcam, Cat. No. ab18447) or IgG3 (Abcam, Cat. No. ab18392) at 0.4 mg/kg (3 times a week for 3 weeks) or 4 mg/kg (2 times a week for 3 weeks); D) Gemcitabine (25 mg/kg) and nab-paclitaxel (5 mg/kg) 2 times a week for 3 weeks; or E) a combination of gemcitabine (25 mg/kg), nab-paclitaxel (5 mg/kg) and mAb NMC-103 (2 mg/kg; 2 times a week for 3 weeks) or ([…]; […]). All tumors were injected subcutaneously and all treatments were performed by intraperitoneal injection. Any mouse displaying prolonged adverse clinical signs, or with body weight loss exceeding 15% relative to body weight at day 0, was euthanized. Tumor measurements from post-treatment with HDM2-specific antibodies versus isotype control mouse antibodies versus standard of care treatment (gemcitabine and nab-paclitaxel) were made, and results are presented in FIGS. 16-19.

[4] = competition: 1 μl/ml mAb pre-incubated with 10 μl/ml peptide for 1 hour

Molecule | binding to NMC-P1 peptide [1] | binding to NMC-P2 peptide [2] | reduction in tumor volume over the same time period ([3]; MC-38) | tumor volume ([3]; MC-38, 0.4 mg/kg i.p. 3 times a week for 3 weeks (NMC-204 study)) [mm^3] | tumor cells stained positively for Ki67 ([3]; MC-38 tumors, NMC-204 study, 0.4 mg/kg) [%] | binding of mAb to plate-bound NMC-P1 after pre-incubation with NMC-P1 peptide [1, 4] | binding of mAb to plate-bound NMC-P1 after pre-incubation with NMC-P2 peptide [1, 4] | binding of mAb to plate-bound NMC-P1 after pre-incubation with NMC-P3 peptide [1, 4] | average tumor size ([3]; MC-38, n=5, 10 mg/kg 2 times per week, by day 12) [mm^3] | tumor reduction at 10 mg/kg compared to 0.4 mg/kg ([3]; MC-38, 10 mg/kg two times per week for three weeks vs FIG. 17) | tumor volume ([3]; MC-38 s.c. in C57BL/6, 0.4 mg/kg i.p. 3 times a week for 2.5 weeks, treated for 18 days (NMC-103 study)) [mm^3] | tumor cells stained positive for Ki67 ([3]; MC-38 tumors, immunohistochemical staining, NMC-103 study, 0.4 mg/kg) [%]
B1 | did not bind | bound; also recorded: strong binding | significant (p<0.005) reduction in tumor volume | 1670 | 30 |  |  |  |  |  |  | 
B2 | bound; also recorded: strong binding | did not bind | significant (p<0.005) reduction in tumor volume |  |  | abolished the binding | did not affect the binding | did not affect the binding | 210 | greater tumor reduction | 1268 | 5
